From the nanobody polyreactivity screen of Harvey et al. (2022)

experiment: yeast display, Sf9 membrane polyspecificity reagent, FACS + sequencing; frameworks hold sequencing errors
Summary of the method: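 Genes from sorted yeast were amplified by colony PCR, read by MiSeq 2 × 250 sequencing and filtered on CDR length. These cells carried a synthetic nanobody library in Saccharomyces cerevisiae BJ5465 and were sorted by FACS into low and high (top ~1%) gates on anti-HA and streptavidin fluorescence. Polyreactivity is labelled according to the gate of origin.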

Sequence	polyreactivity (PSR sort gate)
QVQLVESGGGLVQAGGSLRLSCAASGYIFATYAMGWYRQAPGKERELVAAITSTGSTYYADSVKGRFTISRDNAKNTVYLQMNSLKPEDTAVYYCAAVSGYRARYYLYYYWGQGTQVTVSA	high polyreactivity
QVQLVESGGGLVQAGGSLRLSCAASGYIFDLNPMGRYRQAPGKERELVAAISTGGGTYYADSVKGRFTISRDNAKNTVYLQMNSLKPEDTAVYYCAADWGYWYAEYDYWGQGTLVTVSS	low polyreactivity
QVQLVESGGGLVQAGGSLRLSCAASGYIFDRYAMGWYRQAPGKERELVAAISSDGSTYYADSVKGRFTISRDNAKNTVYLQMNSLKPEDTAVYYCAADGGESAWGGYDYWGQGTQVTVSS	low polyreactivity
QVQLVESGGGLVQAGGSLRLSCAASGYIFEDYAMGWYRQAPGKERELVASIDSGSTTNYADSVKGRFTISRDNAKNTVYLQMNSLKPEDTAVYYCAADSYVSPEVRFDYWGQGTQVTVSS	low polyreactivity
QVQLVESGGGLVQAGGSLRLSCAASGYIFEVNAMGWYRQAPGKERELVATIDTSSGSTNYADSVKGRFTISRDNAKNTVDLQMNSLKPEDTAVYYCAADDETVFLQDDYWGQGTQVTVSS	low polyreactivity
QVQLVESGGGLVQAGGSLRLSCAASGYIFFNAMGWYRQAPGKERELVAAITYPVGSTHYADSVKGRFTISRDNAKNTVYLQMNSLKPEDTAVYYCAAEWYQYLRWYWTYEYYWGQGTQVTVSS	low polyreactivity
QVQLVESGGGLVQAGGSLRLSCAASGYIFGINDMAWYIQAPGKERELVAAIRISGGSTYYADSVKGRFTISRDNAKNTVYLQMNSLKPEDTAVYYCNAQDDGGLEWRYEEDDYWGQGTQVTVSS	low polyreactivity
QVQLVESGGGLVQAGGSLRLSCAASGYIFGSYAMGWYSQAPGKERELVATISYRAGRTYYADSVKGRFTISRDNAKNTVDLQMNSLTPEDTAVYYCAADLVIYLEYDYWGQGTQVTVSS	low polyreactivity
QVQLVESGGGLVQAGGSLRLSCAASGYIFGVYAMGWYRQAPGKERELVAAISYGVGSTYYADSVKGRFTISRDNAKNTVYLQMNSLKPEDTAVYYCAADVFFYVYEAYLLYYWGQGTQVTVSS	low polyreactivity
QVQLVESGGGLVQAGGSLRLSCAASGYIFGVYAMGWYRQAPGKERELVAVISSGDRTNYADSVKGRFTISRDNAKNTVYLQMNSLKPEDTAVYYCAADGRSPSYYGYDHWGQGTQVTVSS	low polyreactivity
QVQLVESGGGLVQAGGSLRLSCAASGYIFGVYVMGWYRQAPGKERELVAAITRGGGNTYYADSVKGRFTFSRDNAKNPVYLQMNSLKPEDTAVYYCAARSLKSLSRYYYWGQGTQVTVSS	high polyreactivity
QVQLVESGGGLVQAGGSLRLSCAASGYIFGWYDMGWYRQAPGKERELVAAIDSGGNTYYADSVKGPFTISRDNAKNTVYLQMNSLKPEDTAVYYCNADYWGWSGPPYEYWGQGTQVTVSS	high polyreactivity
QVQLVESGGGLVQAGGSLRLSCAASGYIFGYNAMGWYRPAPGKERELVAAISRSAGRTYYADSVKGRFTISRDNAKNTVYLQMNSLKPEDSAVYYCAAQSYWLGYEYWGQGTQVTVSS	high polyreactivity
QVQLVESGGGLVQAGGSLRLSCAASGYIFHLYAMGWYRQAPGKERELVAAISSGGRTYYADSVKGRFTISRDNAKNTVYLQMNSLKPEDTAVYYCAVRSYVNTAVGYYYWGQGTQVTVSS	high polyreactivity
QVQLVESGGGLVQAGGSLRLSCAASGYIFHSYAMGWYRQAPGKERELVAAITSSGGSTYYADSVKGRFTISRDNAKNTVYLQMNSLKPEDTAVYYCAAEYYYVYPYYRSPKFDYWGQGTQVTVSS	high polyreactivity
QVQLVESGGGLVQAGGSLRLSCAASGYIFKGNVMGWYRQAPGKERELVAAISSSGGRTYYADSVKWRFTISRDNAKNNVYLQMYSLKPEDTAVYYCNTKHRTKPTGPVDYWGQGTQVTVSS	high polyreactivity
QVQLVESGGGLVQAGGSLRLSCAASGYIFKPNTMGWYRQAPGKERELVAAITRGGRTKYADSVKGRFTISRDNAKNTVYLQMNSLKPEATAVYYCNKVRTVTTYEYWGQGTQVTVSS	high polyreactivity
QVQLVESGGGLVQAGGSLRLSCAASGYIFKRYAMGWYRQAPGKERELVAAISGNGGSTYYADSVKGRFTISRDNAKNTVYLQMNSLKPEDTAVYYCNKSGYYSPTSKGEYWGQGTQVTVSS	low polyreactivity
QVQLVESGGGLVQAGGSLRLSCAASGYIFKSYVMGWNRQEPGKESELVAAITWSGGSTYYADSVKGRFTISRDNAKNTVYLQMNSLKPEDTAVYYCAAYRRRYRTTYDYWGQGTQVTVSS	high polyreactivity
QVQLVESGGGLVQAGGSLRLSCAASGYIFKYYAMGWYIQAPGKERELVASITSGGRTNYADSVKGRFTISRDNAKNTVYLQMNSLKPEDTAVYYCAATSKYQQDPRRYDYWGHGTQVTVSS	high polyreactivity
QVQLVESGGGLVQAGGSLRLSCAASGYIFLANAMGWYRQAPGKVRELVAAITSGGGGTYYADSVKGRFTFSRDNAKNTVYLQMNSLKPEDTAVYYCAADHGRDGSSFEYWGQGTQVTVSS	low polyreactivity

Sequence	polyreactivity (PSR sort gate)
QVQLVESGGGLVQAGGSLRLSCAASGYIFLRNAMGWSRQAPGKERELVASISSDDTSTHYADSVKGRFTISRDNAKNTVYLQMNSLKPEDTAVYYCAARNTPAYIDYNYWGQGTQVTVSS	low polyreactivity
QVQLVESGGGLVQAGGSLRLSCAASGYIFPGNAMGWYRQAPGKERELVAAINWSGTRTYYADSVKGRFTISRDNAKNTVYLQLNSLKPEDTAVYYCNRVWRVPIETYTRYDYWGQGTQVTVSS	high polyreactivity
QVQLVESGGGLVQAGGSLRLSCAASGYIFRGYVMGWYRQAPGKERELVAAISYGDGGTYYADSVKGRFTLSRDNAKNTVYLQMNSLKPEDTAVYYCAAPPYSFWGDYYSAGYYYWGQGTQVTVSS	low polyreactivity
QVQLVESGGGLVQAGGSLRLSCAASGYIFRIYAMGWYRQAPGKERELVARISSGGGTNYADSVKGRFTISRDNAKNTVYLQMNSLKPEDTAVYYCNAGYGSQRGGVFFYRMGYWGQGTQVTVSS	high polyreactivity
QVQLVESGGGLVQAGGSLRLSCAASGYIFRNVMGWYRQAPGKERELVATISGSGGSTYYADSVKGRFTISRDNAKNTVYLQMNSLKPEDTAVYDCSKRWYRLGRYGGYDYWGQGTQVTVSS	high polyreactivity
QVQLVESGGGLVQAGGSLRLSCAASGYIFRWYAMGWYRQAPGKERELVARITNGARTYYADSVKGRFTISRDNAKNTVYLQMNSLKPEDTAVYYCAATVPPTYRRYYYWGQGTQVTVSS	high polyreactivity
QVQLVESGGGLVQAGGSLRLSCAASGYIFRYYAMGRYRQAPGKERELVAAITARAGRTYYADSVKGRFTISRDNAKNTVYLQMTSLKPEDTAVYYCAAVRTKVWRGPEMDYWGQGTQVNVSS	high polyreactivity
QVQLVESGGGLVQAGGSLRLSCAASGYIFRYYAMGWYRQAPGKEREFVAAISRNGGSTYYADSVKGRFTISRDNAKNTVYLQMNSLKPEDTAVYYCNKRVGFLYKYDYWGQGTQVTVSS	high polyreactivity
QVQLVESGGGLVQAGGSLRLSCAASGYIFSLNGMGWYRQAPGKVRELVAAITVSGGRTYYADSVKGRFTISRDNAKNTVYLQMNSLKPEDTAVYYCAKRGKYSYWPYYKYDYWGQGTQVTVSS	high polyreactivity
QVQLVESGGGLVQAGGSLRLSCAASGYIFTFYTMGWYRQEPGKERDLVAAISQTGGRTYYADSVKGRFTISRDNAKNTVYLEMNSLKPEDTAVYYCAARSKRLAHDYWGQGTQVTVSS	high polyreactivity
QVQLVESGGGLVQAGGSLRLSCAASGYIFTGNAMGWYRQAPGKERELVAAIDSGGSTYADSVKGRFTISRDNAKNTVYLQMNSLKPEDTAVYYCNADQNEDTYLSYYGDYDYWGQGTQVTVTS	low polyreactivity
QVQLVESGGGLVQAGGSLRLSCAASGYIFTTNAMGWYRQAPGKERELVAAISSSGGSTYYADSVKGRFTISRDNAKNTVYLQMNSLKPEDTAVYYCAVRRSTGSRSPPMYYWGQGTQVTVSS	high polyreactivity
QVQLVESGGGLVQAGGSLRLSCAASGYIFTYYAMGWYRQAPGKERELVAAISTSGTSTYYADSVKGRFTISRDNAKNTVYLQMNSLKPEDTAVYYCAKRSGARHRLMDYWGQGTQVTVSS	low polyreactivity
QVQLVESGGGLVQAGGSLRLSCAASGYIFVIYAMGRYRQAPGKERELVAAITDGGDNTYYADSVKGRFTISRDNAKNTVYLHMNSLKPEDTAVYYCAADVYLPIAAWEGSLEYYYWGQGTQVTVSS	high polyreactivity
QVQLVESGGGLVQAGGSLRLSCAASGYIFVNYGMGWYRQAPGKERELVAVITNGGRTNYADSVKGRFTISRDNAKNTVYLQMNSLKPEDTAVYYCNARSFRQYYYWGQGTQVTVSS	high polyreactivity
QVQLVESGGGLVQAGGSLRLSCAASGYIFVVNAMGLDRQAPGKERELVAAIDWGGGSTYADSVKGRFTISRDNAKNTVYLQMNSLKPEDTAVYYCAADLWPYPNDYWGQGTQVTVSS	low polyreactivity
QVQLVESGGGLVQAGGSLRLSCAASGYIFVVNAMGWYRQAPGKERELVAAIDWGGGSTYADSVKGRFTISRDNAKNTVYLQMYSLKPEDTAVYYCAADLWPYPNDYWGQGTQVTVSS	low polyreactivity
QVQLVESGGGLVQAGGSLRLSCAASGYIFWSNTMGWYRQAPGKERELVAAISQSTASTYYADSVKGRFTISRDNAKNTVYLQMNSLKPEDTAVYYCAAYYNFGDYEYDYWGQGTQVTVSS	low polyreactivity
QVQLVESGGGLVQAGGSLRLSCAASGYIFYANAMGWYRQAPGKERELVASISTGGNTNYADSVKGRFTISRDNAKNTVYLQMKSLKPEDTAVYYCAVRSTVPYLWRTPVTRDYWGQGTQVTVSS	low polyreactivity
QVQLVESGGGLVQAGGSLRLSCAASGYIFYIYAKGWNRQAPGKERELVAAISYSDGTTYYADSVKGRFTISRDNAKNTVYLQMNSLKAEDTAVYYCAADLWVGLVSLWDGYVEYDYWGQGTQVTVSS	low polyreactivity
